{"source": "patent US5262522A", "about": "“Receptor for oncostatin M and leukemia inhibitory factor” (Immunex Corporation, priority 1991, dated 1993)", "key": {"[1]": {"system": "Recombinant human LIF", "experiment": "LIF binding assay (phthalate oil separation, Scatchard) on transfected COS-7 cells", "experimental": "Recombinant human LIF is expressed in yeast and purified to homogeneity essentially as described by Hopp, et al., Bio/Technology 6:1204 (1988). The purified protein is radiolabeled using a commercially available enzymobead radioiodination reagent (BioRad). In this procedure 10 μg LIF in 50 μl 0.2M sodium phosphate, pH 7.2, are combined with 50 μl enzymobead reagent, 2 mCi of sodium iodide in 20 μl of 0.05M sodium phosphate pH 7.0 and 10 μl of 2.5% β-D-glucose. After 10 minutes at 25° C., sodium azide (20 μl of 50 mM) and sodium metabisulfite (10 μl of 5 mg/ml) are added and incubation is continued for 5 min. at 25° C. The reaction mixture is fractionated by gel filtration on a 2 ml bed volume of Sephadex® G-25 (Sigma) equilibrated in Roswell Park Memorial Institute (RPMI) 1640 medium containing 2.5% (w/v) bovine serum albumin (BSA), 0.2% (w/v) sodium azide and 20 mM Hepes pH 7.4 (binding medium). […]\nThe cells were separated from unbound ^125 I-LIF by centrifugation for five minutes at 15,000×g in an Eppendorf microfuge. […] The radioactivity in both parts was then determined on a gamma counter. The determinations of both cell-bound and unbound radioactivity from the two 60 μl aliquots were averaged for subsequent calculations. […]"}, "[2]": {"system": "oncostatin M", "experiment": "Oncostatin M binding assay (phthalate oil separation, Scatchard) on transfected COS-7 cells", "conditions": "125I-oncostatin M, compared with non-transfected COS-7 cells", "source_text": "Oncostatin M may be purified from cells in which the protein is naturally found, or from cells transformed with an expression vector encoding oncostatin M. One source of oncostatin M is phorbol ester-treated U937 cells, as described by Zarling et al., PNAS U.S.A. 83:9739 (1986). Purification of recombinant oncostatin M is described by Linsley et al., J. Biol. Chem. 264:4282-4289 (1989), which is hereby incorporated by reference in its entirety.\nOncostatin M may be radiolabeled using any suitable conventional procedure, such as the radioiodination procedure employed to radiolabel LIF in Example 1. The radio-iodination of oncostatin M has also been described by Linsley et al., supra.\nThe resulting radiolabeled oncostatin M may be substituted for radiolabeled LIF (using the same concentrations and other reaction parameters) in the assay procedures described in Example 1 in order to detect proteins and cells that bind oncostatin M. An assay for binding of ^125 I-oncostatin M to cells is also described in Linsley et al., supra.\nCOS-7 cells transfected with vector(s) encoding gp130 or LIF-R were assayed for the ability to bind oncostatin M. In separate transfections, COS-7 cells were transfected with the following combinations of vectors. […]"}}, "data": [{"molecule": "gp130: truncated human gp130 polypeptide encoded by plasmid B10G (SEQ ID NO: 2), expressed on COS-7 cells (protein) ELLDPCGYISPESPVVQLHSNFTAVCVLKEKCMDYFHVNANYIVWKTNHFTIPKEQYTIINRTASSVTFTDIASLNIQLTCNILTFGQLEQNVYGITIISGLPPEKPKNLSCIVNEGKKMRCEWDGGRETHLETNFTLKSEWATHKFADCKAKRDTPTSCTVDYSTVYFVNIEVWVEAENALGKVTSDHINFDPVYKVKPNPPHNLSVINSEELSSILKLTWTNPSIKSVIILKYNIQYRTKDASTWSQIPPEDTASTRSSFTVQDLKPFTEYVFRIRCMKEDGKGYWSDWSEEASGITYEDRPSKAPSFWYKIDPSHTQGYRTVQLVWKTLPPFEANGKILDYEVTLTRWKSHLQNYTVNATKLTVNLTNDRYLATLTVRNLVGKSDAAVLTIPACDFQATHPVMDLKAFPKDNMLWVEWTTPRESVKKYILEWCVLSDKAPCITDWQQEDGTVHRTYLRGNLAESKCYLITVTPVYADGPGSPESIKAYLKQAPPSKGPTVRTKKVGKNEAVLEWDQLPVDVQNGFIRNYTIFYRTIIGNETAVNVDSSHTEYTLSSLTSDTLYMVRMAAYTDEGGKDGPEFTFTTPKFAQGEIEAIVVPVCLAFLLTTLLGVLFCFNKRDLIKKHIWPNVPDPSKSHIAQWSPHTPPRHNFNSKDQMYSDGNFTDVSVVEIEANDKKPFPEDL", "values": [{"measurement": "binding of LIF", "setting": "[1]; 125I-LIF, COS-7 cells, compared with non-transfected COS-7 cells", "value": "did not bind LIF in any measurable amount above the amount of binding to the non-transfected COS-7 cells"}]}, {"molecule": "LIF-R: human leukemia inhibitory factor receptor fragment encoded by cDNA clone pHLIFR-65 (SEQ ID NO: 6), expressed on COS-7 cells (protein) QKKGAPHDLKCVTNNLQVWNCSWKAPSGTGRGTDYEVCIENRSRSCYQLEKTSIKIPALSHGDYEITINSLHDFGSSTSKFTLNEQNVSLIPDTPEILNLSADFSTSTLYLKWNDRGSVFPHRSNVIWEIKVLRKESMELVKLVTHNTTLNGKDTLHHWSWASDMPLECAIHFVEIRCYIDNLHFSGLEEWSDWSPVKNISWIPDSQTKVFPQDKVILVGSDITFCCVSQEKVLSALIGHTNCPLIHLDGENVAIKIRNISVSASSGTNVVFTTEDNIFGTVIFAGYPPDTPQQLNCETHDLKEIICSWNPGRVTALVGPRATSYTLVESFSGKYVRLKRAEAPTNESYQLLFQMLPNQEIYNFTLNAHNPLGRSQSTILVNITEKVYPHTPTSFKVKDINSTAVKLSWHLPGNFAKINFLCEIEIKKSNSVQEQRNVTIKGVENSSYLVALDKLNPYTLYTFRIRCSTETFWKWSKWSNKKQHLTTEASPSKGPDTWREWSSDGKNLIIYWKPLPINEANGKILSYNVSCSSDEETQSLSEIPDPQHKAEIRLDKNDYIISVVAKNSVGSSPPSKIASMEIPNDDLKIEQVVGMGKGILLTWHYDPNMTCDYVIKWCNSSRSEPCLMDWRKVPSNSTETVIESDEFRPGIRYNFFLYGCRNQGYQLLRSMIGYIEELAPIVAPNFTVEDTSADSILVKWEDIPVEELRGFLRGYLFYFGKGERDTSKMRVLESGRSDIKVKNITDISQKTLRIADLQGKTSYHLVLRAYTDGGVGPEKSMYVVTKENSVGLIIAILIPVAVAVIVGVVTSILCYRKREWIKETFYPDIPNPENCKALQFQKSVCEGSSALKTLEMNPCTPNNVEVLETRSAFPKIEDTEIISPVAERPEDRSDAEPENHVVVSYCPPIIEEEIPNPAADEAGGTAQVIYIDVQSMYQPQAKPEEKKKKSRSSRSKI", "values": [{"measurement": "binding of oncostatin M", "setting": "[2]", "value": "did not bind oncostatin M in any significant amount above that bound by the non-transfected COS-7 cells"}, {"measurement": "binding of LIF after preincubation with oncostatin M", "setting": "[1]; cells transfected with pHLIFR-65 and CAV, preincubated with non-radiolabeled oncostatin M (curve D)", "value": "essentially unchanged"}]}]}
